Laboratory results taken from the Immune Epitope Database (IEDB).

Tests used:
HLA-B*40:01 = assay: IEDB peptide-MHC binding, purified MHC/direct/fluorescence; filed as Kd, often an IC50 or EC50 that approximates it; ≥ and ≤ were set here for values at or beyond the usual limits of such assays
HLA-A*26:01 [1] = assay: as above
HLA-A*11:01 [2] = assay: as above
HLA-B*58:01 = assay: as above
HLA-B*27:05 = assay: as above
HLA-A*30:01 = assay: as above
HLA-B*08:01 = assay: as above
HLA-B*15:01 [3] = assay: as above
HLA-A*24:03 = assay: as above
HLA-B*07:02 = assay: as above
HLA-A*02:01 [4] = assay: as above
HLA-A*03:01 [5] = assay: as above
HLA-A*01:01 = assay: as above
HLA-B*15:01 [6] = assay: IEDB peptide-MHC binding, purified MHC/competitive/fluorescence; ≥ and ≤ were set here for values at or beyond the usual limits of such assays
HLA-A*02:01 [7] = assay: as above
HLA-A*11:01 [8] = assay: as above
HLA-A*24:02 = assay: as above
HLA-A*03:01 [9] = assay: as above
HLA-C*15:02 = assay: IEDB peptide-MHC binding, purified MHC/direct/fluorescence; filed as Kd, often an IC50 or EC50 that approximates it; ≥ and ≤ were set here for values at or beyond the usual limits of such assays
HLA-B*35:01 = assay: IEDB peptide-MHC binding, purified MHC/competitive/fluorescence; filed as Kd, often an IC50 or EC50 that approximates it; ≥ and ≤ were set here for values at or beyond the usual limits of such assays; conditions: source organism: Influenza A virus H3N2
HLA-A*23:01 [10] = assay: as above; conditions: source organism: Bacillus cereus ATCC 14579
HLA-A*02:11 = assay: IEDB peptide-MHC binding, purified MHC/direct/fluorescence; filed as Kd, often an IC50 or EC50 that approximates it; ≥ and ≤ were set here for values at or beyond the usual limits of such assays; conditions: source organism: Zaire ebolavirus
HLA-A*68:02 = assay: as above; conditions: source organism: Zaire ebolavirus
HLA-A*31:01 = assay: as above
HLA-B*46:01 = assay: as above
HLA-B*57:01 = assay: as above
HLA-B*44:02 = assay: as above
HLA-A*29:02 = assay: as above
HLA-A*02:12 = assay: as above; conditions: source organism: Zaire ebolavirus
HLA-A*23:01 [11] = assay: as above
HLA-B*18:01 = assay: as above
HLA-A*69:01 = assay: as above
HLA-A*26:01 [12] = assay: IEDB peptide-MHC binding, purified MHC/competitive/fluorescence; filed as Kd, often an IC50 or EC50 that approximates it; ≥ and ≤ were set here for values at or beyond the usual limits of such assays; conditions: source organism: Zaire ebolavirus
HLA-B*51:01 = assay: as above; conditions: source organism: Zaire ebolavirus
HLA-B*15:17 = assay: as above; conditions: source organism: Zaire ebolavirus
HLA-B*27:03 = assay: as above; conditions: source organism: Zaire ebolavirus
HLA-B*39:01 = assay: as above; conditions: source organism: Zaire ebolavirus
HLA-C*05:01 = assay: IEDB peptide-MHC binding, purified MHC/direct/fluorescence; filed as Kd, often an IC50 or EC50 that approximates it; ≥ and ≤ were set here for values at or beyond the usual limits of such assays; conditions: source organism: Mycobacterium tuberculosis variant bovis BCG str. Pasteur 1173P2
HLA-B*08:02 = assay: as above; conditions: source organism: Brucella suis 1330
[13] = source organism: Corynebacterium glutamicum
[14] = source organism: Zaire ebolavirus
[15] = source organism: Sudan ebolavirus
[16] = source organism: Sudan ebolavirus - Maleo (1979)
[17] = source organism: Orthohantavirus hantanense
[18] = source organism: Vaccinia virus
[19] = source organism: Treponema denticola
[20] = source organism: Aggregatibacter actinomycetemcomitans
[21] = source organism: Yersinia pestis Antiqua
[22] = source organism: Yersinia pestis

ATQPVHWFL
Kd (HLA-B*40:01; [13]): ≥ 20 µM
Kd (HLA-A*26:01 [1]; [13]): ≥ 20 µM
Kd (HLA-A*11:01 [2]; [13]): 0.021 µM
Kd (HLA-B*58:01; [13]): 0.444 µM
Kd (HLA-B*27:05; [13]): ≥ 20 µM
Kd (HLA-A*30:01; [13]): 0.0317 µM
Kd (HLA-B*08:01; [13]): ≥ 20 µM
Kd (HLA-B*15:01 [3]; [13]): ≥ 20 µM
Kd (HLA-A*24:03; [13]): 0.00444 µM
Kd (HLA-B*07:02; [13]): 6.67 µM
Kd (HLA-A*02:01 [4]; [13]): 0.115 µM
Kd (HLA-A*03:01 [5]; [13]): ≥ 20 µM
Kd (HLA-A*01:01; [13]): 3.13 µM

AVSHLTTLA
IC50 (HLA-B*15:01 [6]; [14]): ≥ 135 µM
IC50 (HLA-A*02:01 [7]; [14]): 3.08 µM

IIIAVARKH
IC50 (HLA-A*11:01 [8]; source organism: Variola virus): 14.5 µM
IC50 (HLA-A*24:02; source organism: Variola virus): 2.98 µM
IC50 (HLA-B*15:01 [6]; source organism: Variola virus): 36.4 µM
IC50 (HLA-A*02:01 [7]; source organism: Variola virus): 50.9 µM
IC50 (HLA-A*03:01 [9]; source organism: Variola virus): 35.5 µM

ILFQKAFSM
IC50 (HLA-A*11:01 [8]; [15]): 54.8 µM
IC50 (HLA-A*24:02; [15]): 0.336 µM
IC50 (HLA-B*15:01 [6]; [15]): 4.24 µM
IC50 (HLA-A*02:01 [7]; [15]): 0.626 µM
IC50 (HLA-A*03:01 [9]; [15]): 15.7 µM

ILMEHIHKL
Kd (HLA-C*15:02; source organism: Rattus norvegicus): 0.239 µM

KLFSYGTLI
IC50 (HLA-B*15:01 [6]; source organism: Variola virus): 26.2 µM
IC50 (HLA-A*02:01 [7]; source organism: Variola virus): 0.61 µM
IC50 (HLA-A*03:01 [9]; source organism: Variola virus): 5.5 µM

KSRRFTVRF
Kd (HLA-C*15:02; source organism: Mycobacterium tuberculosis variant bovis BCG str. Pasteur 1173P2): ≥ 20 µM
Kd (HLA-B*58:01; source organism: Mycobacterium tuberculosis): 0.422 µM

LTITYSSSM
Kd (HLA-A*26:01 [1]; source organism: Influenza A virus (A/swine/Miyagi/5/2003(H1N2))): 0.0618 µM
Kd (HLA-B*35:01): 1.18 µM

LYSLWTKRK
Kd (HLA-A*23:01 [10]): 0.245 µM

MHYKLDEVL
Kd (HLA-A*02:11): ≥ 20 µM
Kd (HLA-B*40:01; [16]): ≥ 20 µM
Kd (HLA-A*68:02): ≥ 20 µM
Kd (HLA-A*11:01 [2]; [16]): ≥ 20 µM
Kd (HLA-B*58:01; [16]): ≥ 20 µM
Kd (HLA-A*31:01; [16]): ≥ 20 µM
Kd (HLA-B*27:05; [16]): ≥ 20 µM
Kd (HLA-B*46:01; [16]): ≥ 20 µM
Kd (HLA-B*57:01; [16]): ≥ 20 µM
Kd (HLA-B*44:02; [16]): ≥ 20 µM
Kd (HLA-B*08:01; [16]): ≥ 20 µM
Kd (HLA-A*29:02; [16]): ≥ 20 µM
Kd (HLA-A*02:12): ≥ 20 µM
Kd (HLA-B*15:01 [3]; [16]): ≥ 20 µM
Kd (HLA-A*24:03; [14]): ≥ 20 µM
Kd (HLA-B*07:02; [16]): ≥ 20 µM
Kd (HLA-A*02:01 [4]; [16]): ≥ 20 µM
Kd (HLA-A*23:01 [11]; [14]): ≥ 20 µM
Kd (HLA-A*03:01 [5]; [16]): ≥ 20 µM
Kd (HLA-B*18:01; [16]): ≥ 20 µM
Kd (HLA-A*01:01; [16]): ≥ 20 µM
Kd (HLA-A*69:01; [16]): ≥ 20 µM
Kd (HLA-A*26:01 [12]): ≥ 20 µM
Kd (HLA-B*51:01): ≥ 20 µM
Kd (HLA-B*15:17): ≥ 20 µM
Kd (HLA-B*27:03): ≥ 20 µM
Kd (HLA-B*39:01): 0.0041 µM

NYYAPRIQF
Kd (HLA-A*30:01; source organism: Hantaan virus Q32): ≥ 20 µM
Kd (HLA-A*24:03; [17]): 0.0074 µM
Kd (HLA-A*23:01 [11]; [17]): 0.0059 µM

RAFRNLNVT
IC50 (HLA-B*15:01 [6]; [18]): ≥ 77.9 µM
IC50 (HLA-A*02:01 [7]; [18]): 48.3 µM

RQDEVGTPF
Kd (HLA-C*05:01): ≤ 0.001 µM
Kd (HLA-A*02:01 [4]; [19]): 2.01 µM
Kd (HLA-A*69:01; [19]): ≥ 20 µM

RSEVELCIY
Kd (HLA-B*40:01; [20]): ≥ 20 µM
Kd (HLA-A*26:01 [1]; [20]): ≥ 20 µM
Kd (HLA-A*11:01 [2]; [20]): ≥ 20 µM
Kd (HLA-B*58:01; [20]): 0.663 µM
Kd (HLA-A*31:01; [20]): ≥ 20 µM
Kd (HLA-B*27:05; [20]): ≥ 20 µM
Kd (HLA-A*30:01; [20]): ≥ 10 µM
Kd (HLA-B*08:01; [20]): ≥ 20 µM
Kd (HLA-B*15:01 [3]; [20]): 6.28 µM
Kd (HLA-A*24:03; [20]): ≥ 20 µM
Kd (HLA-B*07:02; [20]): ≥ 20 µM
Kd (HLA-A*02:01 [4]; [20]): ≥ 20 µM
Kd (HLA-A*03:01 [5]; [20]): ≥ 20 µM
Kd (HLA-A*01:01; [20]): 0.111 µM
Kd (HLA-A*69:01; [20]): ≥ 20 µM

RYQRMTGGY
Kd (HLA-B*40:01; [21]): ≥ 20 µM
Kd (HLA-A*26:01 [1]; [21]): ≥ 20 µM
Kd (HLA-B*58:01; [21]): ≥ 20 µM
Kd (HLA-A*31:01; [22]): 0.388 µM
Kd (HLA-B*27:05; [22]): 2.93 µM
Kd (HLA-A*30:01; [22]): 2.34 µM
Kd (HLA-B*08:01; [21]): ≥ 20 µM
Kd (HLA-B*15:01 [3]; [22]): 1.35 µM
Kd (HLA-A*24:03; [22]): 0.00621 µM
Kd (HLA-B*07:02; [21]): ≥ 20 µM
Kd (HLA-A*02:01 [4]; [21]): ≥ 20 µM
Kd (HLA-A*03:01 [5]; [21]): ≥ 20 µM
Kd (HLA-A*01:01; [21]): ≥ 20 µM
Kd (HLA-A*69:01; [21]): ≥ 20 µM

SQVPKLLLW
IC50 (HLA-B*15:01 [6]; source organism: Variola virus): ≥ 121 µM

TVCGGIMFL
Kd (HLA-C*15:02; source organism: human gammaherpesvirus 4): 2.47 µM

VTTPARTAF
Kd (HLA-C*15:02; source organism: Mycobacterium tuberculosis C): ≥ 20 µM
Kd (HLA-B*58:01; source organism: Mycobacterium avium 104): 1.1 µM

YFNVLDEKY
IC50 (HLA-A*24:02; [18]): 33 µM
IC50 (HLA-B*15:01 [6]; [18]): ≥ 283 µM

YQRRRRFAI
Kd (HLA-B*40:01; source organism: Brucella suis): ≥ 20 µM
Kd (HLA-B*58:01; source organism: Brucella suis): ≥ 20 µM
Kd (HLA-B*46:01; source organism: Brucella suis): ≥ 20 µM
Kd (HLA-B*57:01; source organism: Brucella suis): ≥ 20 µM
Kd (HLA-B*44:02; source organism: Brucella suis): ≥ 20 µM
Kd (HLA-A*29:02; source organism: Brucella suis): ≥ 20 µM
Kd (HLA-B*08:02): 0.367 µM
Kd (HLA-B*07:02; source organism: Brucella suis): ≥ 20 µM
Kd (HLA-A*02:01 [4]; source organism: Brucella suis): ≥ 20 µM
Kd (HLA-A*03:01 [5]; source organism: Brucella suis): ≥ 20 µM
Kd (HLA-B*18:01; source organism: Brucella suis): ≥ 20 µM
Kd (HLA-A*01:01; source organism: Brucella suis): ≥ 20 µM
Kd (HLA-A*69:01; source organism: Brucella suis): ≥ 20 µM
